Test results reported in patent US20190071499A1 (published 2019).

What was measured:
[1] = target: T1, human IFN-α1 (human, UniProt P0DY56 24-189); assay: ELISA or LIPS (Table 7 summary; ELISA at 300 ng/ml MAB in paragraph 311)
T1 construct: commercial recombinant protein; also called IFN-alpha 1beta; IFN-α1/13

[2] = target: T2, g1mIFN-α9 (mouse, UniProt P09235 24-190); assay: LIPS
T2 construct: also called murine IFN-α9 (Gaussia luciferase fusion); not shown: Gaussia luciferase fusion partner
T2 sequence (looked up): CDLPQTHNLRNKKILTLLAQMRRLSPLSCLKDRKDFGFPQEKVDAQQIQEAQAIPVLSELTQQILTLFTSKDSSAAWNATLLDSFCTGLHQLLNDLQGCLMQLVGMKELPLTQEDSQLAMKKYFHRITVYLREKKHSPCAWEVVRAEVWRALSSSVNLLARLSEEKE

[3] = target: T3, human Fc fusion mouse IFN-α4 (mouse, UniProt P07351 25-186); assay: ELISA, human Fc fusion mouse IFN-α
T3 construct: bought (SinoBiological); also called murine IFN-α4; not shown: human Fc
T3 sequence (looked up): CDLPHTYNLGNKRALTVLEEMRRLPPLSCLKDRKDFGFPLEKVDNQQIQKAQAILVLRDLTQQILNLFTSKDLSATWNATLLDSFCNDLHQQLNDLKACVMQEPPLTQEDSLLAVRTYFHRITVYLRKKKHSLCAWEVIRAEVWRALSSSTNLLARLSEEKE

[4] = target: T4, human Fc fusion mouse IFN-α2 (mouse, UniProt P01573 24-190); assay: ELISA, human Fc fusion mouse IFN-α
T4 construct: bought (SinoBiological); also called murine IFN-α2; murine INFA2; not shown: human Fc
T4 sequence (looked up): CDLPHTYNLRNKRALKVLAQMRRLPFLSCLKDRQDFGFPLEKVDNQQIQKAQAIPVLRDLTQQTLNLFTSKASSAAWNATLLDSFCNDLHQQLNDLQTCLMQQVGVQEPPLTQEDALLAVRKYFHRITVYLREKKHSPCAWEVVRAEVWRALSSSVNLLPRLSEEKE

[5] = target: T5, human IFN-α10 (human, UniProt P01566 24-189); assay: ELISA or LIPS (Table 7 summary)
T5 construct: recombinant protein; also called rhIFN-α10
T5 sequence (P01566 24-189 limits assumed): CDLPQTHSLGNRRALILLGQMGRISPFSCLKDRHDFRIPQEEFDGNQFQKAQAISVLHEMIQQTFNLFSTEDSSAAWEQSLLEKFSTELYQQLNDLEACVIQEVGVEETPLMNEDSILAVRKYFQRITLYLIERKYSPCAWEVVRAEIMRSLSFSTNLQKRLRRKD

[6] = target: T6, human IFN-α21 (human, UniProt P01568 24-189); assay: ELISA or LIPS (Table 7 summary)
T6 construct: commercial recombinant protein; also called rhIFN-α21; IFN-α21 (PBL)
T6 sequence (P01568 24-189 limits assumed): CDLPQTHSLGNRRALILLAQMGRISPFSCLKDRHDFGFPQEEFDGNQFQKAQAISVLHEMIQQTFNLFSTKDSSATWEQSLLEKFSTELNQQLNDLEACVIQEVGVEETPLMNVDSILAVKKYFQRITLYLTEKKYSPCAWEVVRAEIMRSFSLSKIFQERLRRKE

[7] = target: T7, human IFN-α16 (human, UniProt P05015 24-189); assay: ELISA or LIPS (Table 7 summary)
T7 construct: recombinant protein; also called rhIFN-α16
T7 sequence (P05015 24-189 limits assumed): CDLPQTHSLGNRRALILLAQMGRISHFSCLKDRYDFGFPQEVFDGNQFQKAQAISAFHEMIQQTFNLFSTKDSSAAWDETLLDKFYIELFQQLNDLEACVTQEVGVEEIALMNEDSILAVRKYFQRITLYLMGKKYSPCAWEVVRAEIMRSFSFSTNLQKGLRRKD

T1 sequence (P0DY56 entry or part of it limits assumed): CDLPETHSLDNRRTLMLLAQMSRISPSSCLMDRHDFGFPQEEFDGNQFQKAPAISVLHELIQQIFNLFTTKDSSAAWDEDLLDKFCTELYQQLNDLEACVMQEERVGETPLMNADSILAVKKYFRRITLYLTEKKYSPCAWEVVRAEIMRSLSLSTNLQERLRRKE

B1: 5D1 (antibody, human IgG1, kappa, V domains shown)
VH: EVQLVQAGAEVKAPGESLRISCKVSGYTFTSYWISWVRQIPGKGLEWMVKIDPRDSYTIYNPSFQGHVSISVDKSITTVYLQWSSLQASDTAIYYCVRHYLTQSLVDYFDHWGQGTLVAVSS
VL: DIQMTQSPSSLSASVGDSVTITCRASQSVSNYFHWYRQKPGKAPELLIYSASNLQTGVPSRFTGSGSGTECTLTITSLQPDDFATYYCQQTHGYPFTFGQGTKLDVRR
notes: human-derived IgG1, kappa; also called MAB 5D1; hMAB 5D1
B1: no binding [1]; no binding [2]; no binding [3]. B1: no binding [4]; binds [5]; binds [6]. B1: binds [7].
